Results on eight molecules are retold here after patent US5976875A, “Diacylglycerol kinase isoforms epsilon and zeta and methods of use thereof” (priority 1997, dated 1999).

One data set concerns the target T1, DGKε (Homo sapiens, UniProt P52429).
T1 construct: a PCR product of the DGKε cDNA lacking the 3'-untranslated region and part of the 5'-untranslated region was amplified; expressed in transfected cells; host or cells: COS-7
T1 sequence (P52429 1-567): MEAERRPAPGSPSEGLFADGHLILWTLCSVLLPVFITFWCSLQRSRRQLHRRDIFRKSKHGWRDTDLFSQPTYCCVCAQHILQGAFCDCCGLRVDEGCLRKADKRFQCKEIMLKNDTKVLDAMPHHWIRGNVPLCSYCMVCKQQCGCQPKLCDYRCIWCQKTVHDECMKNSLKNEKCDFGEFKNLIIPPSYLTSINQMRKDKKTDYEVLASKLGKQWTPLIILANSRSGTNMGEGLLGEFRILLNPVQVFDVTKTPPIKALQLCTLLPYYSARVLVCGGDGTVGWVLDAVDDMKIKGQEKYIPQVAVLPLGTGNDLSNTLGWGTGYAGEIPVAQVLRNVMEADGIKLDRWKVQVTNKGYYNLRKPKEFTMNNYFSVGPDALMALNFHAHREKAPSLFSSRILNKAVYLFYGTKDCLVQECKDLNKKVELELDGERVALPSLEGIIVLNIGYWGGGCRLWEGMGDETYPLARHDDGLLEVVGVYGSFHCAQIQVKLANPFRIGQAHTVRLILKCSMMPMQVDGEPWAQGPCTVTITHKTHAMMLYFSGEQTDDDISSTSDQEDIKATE
The experiment in a line: octyl glucoside/PS mixed-micelle assay of DGK activity, homogenates of DGKε-transfected COS-7 cells. The format is biochemical. Conditions: for inhibition of DGKε activity: 100 μm inhibitor, homogenates from transfected cells. How it is done:
COS-7 Transfection and Assay of DGK Activity--COS-7 transfection was carried out using LipofectAMINE reagent (Life Technologies, Inc.), and all steps were followed by the protocol provided by the manufacturer. After 2.5 days, the cells were harvested and lysed by sonication (twice with 5 watts for 5 s at 4° C.) in the lysis buffer (0.1 ml/35 mm well) containing 20 mm Tris-HCL, pH 7.4, 0.25 m sucrose, 1 mm EDTA, 4 mm EGTA, 1 mm dithiothreitol, 1 mm phenylmethylsulfonyl fluoride, a 20 μg/ml concentration of each: leupeptin, pepstatin, aprotinin, and soybean trypsin inhibitor. Kai, M., Sakane, F., Imai, S., Wada, I., and Kanoh, H. (1994) J. Biol. Chem. 269, 18492-18498. The protein concentration of the cell homogenate was determined with the BCA protein assay reagent (Pierce). In two experiments, the homogenate was separated into soluble and membrane-bound fractions by centrifugation at 100,000×g for 60 min. (4° C.). The pellet was resuspended in lysis buffer, and both fractions were assayed for DGK activity.
Since the full-length cDNA of DGKε could not be expressed in COS-7 cells, a PCR product of the DGKε cDNA lacking the 3'-untranslated region and part of the 5'-untranslated region was amplified and cloned into pcDNA/Neo (Invitrogen). The forward primer (SEQ ID NO: 10):
The octyl glucoside/PS mixed-micelle assay of DGK activity was performed as described. Walsh, J. P., Suen, R., Lemaitre, R. N., and Glomset, J. A. (1994) J. Biol. Chem. 269, 21155-21164. In brief, the assay mixture contained 50 mm MOPS, pH 7.2, 100 mm NaCl, 20 mm MgCl2, 1 mm EGTA, 1 mm dithoiothreitol, 2 mm discylglycerol, 3.5 mm phosphatidylserine, 75 mm octyl-β-glucopyranoside, 500 μm [γ-^32 P] ATP, and 20 μg of cellular protein in a volume of 200 μl. The reaction was initiated by the addition of [γ-^32 P] ATP (20-30 μCi/μmol) and processed for 10 min at 24° C. […] The amount of phosphatidic acid formed per reaction was calculated by dividing the radioactivity in phosphatidic acid by the specific radioactivity of the ATP in the reaction.

The next data set addresses T2, DGK.zeta. (Homo sapiens, UniProt Q13574).
T2 construct: The DGK.zeta. cDNA was expressed in pcDNA 1/AMP (Invitrogen) in the foward orientation; expressed in transfected cells; host or cells: COS-7
The experiment in a line: DAG kinase assay, homogenates of DGK.zeta.-transfected COS-7 cells. The format is biochemical. Here is the method: COS-7 Transfection--The DGK.zeta. cDNA was expressed in pcDNA 1/AMP (Invitrogen) in the foward orientation. Each p35 dish containing COS-7 cells at 60-80% confluence was transfected with 1 μg of plasmid DNA and 5 μl of LipofectAMINE according to manufacturer specifications (Life Technologies Inc.). The cells were harvested by washing with ice-cold Hanks' balanced salt solution (Ca^2+ - and […] -free) and were scraped into resuspension buffer (20 mM Tris-HCl, pH 7.4, 0.25 M sucrose, 1 mM EDTA, 4 mM EGTA, 1 mM dithiothreitol, 1 mM pheylmethylsulfonyl fluoride, 20 μg/ml each leupeptin, pepstain, aprotinin, and soybean trypsin inhibitor) 48 h following transfection. All homogenates were frozen on dry ice and stored at -70° C. until assayed.
(§1) DAG Kinase Assay--Cell homogenates were sonicated twice with 5 watts for 5 at 4° C. The protein concentration of each cell homogenate was measured following trichloracetic acid precipitation utilizing the BCA protein assay reagent (Pierce). Each assay contained 50 mM MOPS, pH 7.2, 100 mM NaCl, 20 mM MgCl2, 1 mM EGTA, 1 mM dithiothreitol, 2 mM 1,2-dieleoyl-an-glycerol, 3.5 mM phosphatidylserine, 75 mM octyl-β-glucopyranoside, 500 μM [γ^32 ]ATP, and 0-20 μg of cell homogenate in a volume of 200 μl. For substrate specificity experiments, various diacylglycerol species were substituted for 1,2-dioleoyl-an-glycerol. The reactions were initiated by the addition of ATP (20-30 μCi/μmol), were incubated for 10 min. At 24° C., and were terminated by the addition of 200 μl of 1% perchloric acid. Then, to each tube, we added 1.0 ml of MeOH, 1.0 ml of CHCl^5, 500 μl of 1% perchloric acid, and 50 μg of phosphatidic acid, vortexed them well, and centrifuged them for 10 min at 400×g. The remaining lower phase was dried under N2 and resuspended in 100 μl of 9:1 CHCl3 /MeOH. Fifty μl of each sample were counted directly by liquid acintillation spectrometry, and the remainder was applied to a 20×20 cm Silica 60A thin layer chromatography plate (Whatman). […] The region containing phosphatidic acid (as indicated by radiolabeled standards) and the remaining areas of each lane were scraped separately, and the radioactivity was estimated by liquid scintillation spectrometry. The amount of phosphatidic acid formed per reaction was calculated as [2(direct count)(PA cpm)(total lane cpm)]×[mole ATP/cpm]. R59959 was dissolved in dimethyl sulfoxide and added to relevant enzymatic reactions just prior to the addition of ATP.

The target in the next data set is T3, DGK.zeta.-2 (Homo sapiens, UniProt Q13574).
T3 construct: the DGK.zeta.-2 cDNA was subcloned into an expression vector and transfected into COS-7 cells; expressed in transfected cells; host or cells: COS-7
The experiment in a line: DGK activity assay, homogenates of DGK.zeta.-2-transfected COS-7 cells. The format is biochemical. How it is done: as §1, with “Then, to each tube, we added 1.0 ml of MeOH, 1.0 ml of CHCl^5, 500 μl of 1% perchloric acid, and 50 μg of phosphatidic acid, vortexed them well, and centrifuged them for 10 min at 400×g. The remaining lower phase was dried under N2 and resuspended in 100 μl of 9:1 CHCl3 /MeOH.” left out, “R59959 was dissolved in dimethyl sulfoxide and added to relevant enzymatic reactions just prior to the addition of ATP.” left out

The test system of data set [1] is protein kinase M (PKM), catalytic fragment of mixed rat brain PKC isozymes. Conditions: comparison values for MARCKS and MRP synthetic peptides; read-out: S0.5 for phosphorylation by PKM; cited from earlier work.
The target of data set [2] is human diacylglycerol kinase ζ (DGKζ) (human).
Data set [3] concerns the target DGK peptide, 18 amino acid peptide corresponding to residues 256-273 of DGKζ (human).
In data set [4] the target is DGK A/S peptide, the DGK peptide with an alanine substituted for the serine at residue 10 (human).
In data set [5] the target is protein kinase M (PKM), purified catalytic fragment of mixed rat brain PKC isozymes (rat).

T2 sequence (Q13574 whole entry): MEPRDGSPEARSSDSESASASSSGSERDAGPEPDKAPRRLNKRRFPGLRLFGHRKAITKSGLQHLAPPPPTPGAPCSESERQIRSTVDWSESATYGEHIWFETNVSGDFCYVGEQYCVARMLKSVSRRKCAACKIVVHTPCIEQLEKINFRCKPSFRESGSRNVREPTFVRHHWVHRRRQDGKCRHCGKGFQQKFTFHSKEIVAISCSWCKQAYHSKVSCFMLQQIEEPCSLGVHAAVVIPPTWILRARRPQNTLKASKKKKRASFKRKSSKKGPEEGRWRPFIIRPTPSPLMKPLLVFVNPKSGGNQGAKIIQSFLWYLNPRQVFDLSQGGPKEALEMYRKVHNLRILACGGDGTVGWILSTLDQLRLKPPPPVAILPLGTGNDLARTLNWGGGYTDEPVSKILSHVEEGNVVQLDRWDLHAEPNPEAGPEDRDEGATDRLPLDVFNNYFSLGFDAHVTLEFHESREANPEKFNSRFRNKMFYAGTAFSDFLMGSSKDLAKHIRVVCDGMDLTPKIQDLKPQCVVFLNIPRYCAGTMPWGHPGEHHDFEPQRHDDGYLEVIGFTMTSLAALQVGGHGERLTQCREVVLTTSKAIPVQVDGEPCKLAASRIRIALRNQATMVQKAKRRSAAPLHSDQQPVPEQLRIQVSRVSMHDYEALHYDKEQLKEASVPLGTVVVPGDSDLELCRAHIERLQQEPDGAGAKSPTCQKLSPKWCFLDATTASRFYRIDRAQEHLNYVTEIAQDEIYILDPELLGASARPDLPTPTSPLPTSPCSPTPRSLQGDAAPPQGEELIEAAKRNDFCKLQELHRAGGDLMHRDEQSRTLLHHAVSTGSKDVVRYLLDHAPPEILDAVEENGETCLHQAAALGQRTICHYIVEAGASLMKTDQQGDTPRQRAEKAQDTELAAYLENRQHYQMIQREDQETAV
T3 sequence (Q13574 1-1117 isoform Q13574-1 Q21R/L159V/L166C/L167C): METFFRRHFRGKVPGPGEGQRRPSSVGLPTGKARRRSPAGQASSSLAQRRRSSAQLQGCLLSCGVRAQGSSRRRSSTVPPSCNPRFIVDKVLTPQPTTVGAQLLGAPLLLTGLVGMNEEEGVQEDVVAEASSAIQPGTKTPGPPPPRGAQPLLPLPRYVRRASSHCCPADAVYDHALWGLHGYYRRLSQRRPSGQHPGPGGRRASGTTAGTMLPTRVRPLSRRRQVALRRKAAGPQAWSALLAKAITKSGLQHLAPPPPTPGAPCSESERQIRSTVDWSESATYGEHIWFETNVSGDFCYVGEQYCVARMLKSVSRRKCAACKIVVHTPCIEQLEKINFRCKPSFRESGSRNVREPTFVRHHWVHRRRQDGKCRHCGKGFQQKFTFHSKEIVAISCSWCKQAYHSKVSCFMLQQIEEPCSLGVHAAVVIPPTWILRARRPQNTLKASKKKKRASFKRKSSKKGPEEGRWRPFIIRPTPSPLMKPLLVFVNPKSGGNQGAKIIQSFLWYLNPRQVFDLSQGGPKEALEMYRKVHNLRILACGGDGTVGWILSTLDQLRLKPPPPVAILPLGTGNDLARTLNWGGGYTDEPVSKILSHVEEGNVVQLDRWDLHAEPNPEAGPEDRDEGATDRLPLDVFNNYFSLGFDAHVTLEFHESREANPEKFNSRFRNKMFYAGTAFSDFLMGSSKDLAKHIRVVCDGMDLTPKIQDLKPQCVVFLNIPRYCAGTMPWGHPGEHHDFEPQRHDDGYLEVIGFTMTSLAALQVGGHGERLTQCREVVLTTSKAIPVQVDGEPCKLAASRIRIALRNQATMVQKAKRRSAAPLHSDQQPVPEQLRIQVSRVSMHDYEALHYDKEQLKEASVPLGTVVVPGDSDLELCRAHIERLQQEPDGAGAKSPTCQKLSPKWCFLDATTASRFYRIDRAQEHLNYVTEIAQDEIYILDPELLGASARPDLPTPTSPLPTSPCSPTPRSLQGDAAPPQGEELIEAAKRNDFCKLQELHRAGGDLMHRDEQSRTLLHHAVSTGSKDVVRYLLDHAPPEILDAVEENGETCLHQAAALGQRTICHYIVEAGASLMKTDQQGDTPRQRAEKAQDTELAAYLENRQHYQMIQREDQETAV

Regarding `Cc1nc2sccn2c(=O)c1CCN1CCC(=C(c2ccccc2)c2ccc(F)cc2)CC1` [R59022], at DGKε, the “inhibition of DGKε activity” value is reported as “approximately 11%”.
Consider `O=c1c2ccccc2[nH]c(=S)n1CCN1CCC(=C(c2ccc(F)cc2)c2ccc(F)cc2)CC1` [R59949], for which the activity at 100 µM on DGK.zeta. (100 μm R59949, read-out: DGK.zeta. activity in presence of inhibitor) came out at 94%. On DGK.zeta. (summary statement), the “DAG kinase activity of DGK.zeta.-transfected cells in presence of inhibitor” value is recorded as “not altered”. Besides, at DGKε, the “inhibition of DGKε activity” value was ~41%.
Take “DGK.zeta.-2: alternatively spliced muscle form of DGK.zeta., 1,117 amino acid protein (SEQ ID NO: 6)”: the DGK activity with DGK.zeta.-2 (1,2-dicapryl-sn-glycerol substrate, typical experiment, FIG. 21) is reported as 6.8 nmol/mg/min. Also, in the data set with DGK.zeta.-2 (transfected COS-7 homogenates), the “DAG kinase activity relative to vector alone” value is recorded as “more than 50 fold”.
Take “MARCKS: MARCKS synthetic peptide phosphorylated by PKM (KASKKKKRASFKRKSSKK)”: in data set [1], the Km is 20 nM.
In the case of “human protein kinase C γ (PKCγ) (from UniProt P05129) (enzyme)”, the nuclear localization of DGKζ by subcellular fractionation and immunoblotting in data set [2] is > 50%.
On to phosphatidylserine, for which, at DGKε (additional 3.5 mm phosphatidylserine added to reaction mixture), the “effect of increased phosphatidylserine concentration on DGKε activity” value was “only slightly increased”.
Take “protein kinase M (PKM), purified catalytic fragment of mixed rat brain PKC isozymes (pool or library)”: the Km of phosphorylation of the peptide by PKM in data set [3] came out at 500 nM. Further, in data set [4], the Km of a possible second phosphorylation site is > 800 µM and the Km of phosphorylation of the peptide by PKM was found to be 50 µM.
KASKKKKRAAFKRKSSKK [DGK A/S peptide, the DGK peptide with an alanine substituted for the serine at residue 10] had a half-maximal inhibition of PKM phosphorylation of histone IIIS in data set [5] of 800 nM.
